Measurements reported in IntAct's records for PubMed 20972448.

Biological target: xpo1_mouse Xpo1 (UniProt Q6P5F9)
Chain of UniProt Q6P5F9 (Q6P5F9 whole entry): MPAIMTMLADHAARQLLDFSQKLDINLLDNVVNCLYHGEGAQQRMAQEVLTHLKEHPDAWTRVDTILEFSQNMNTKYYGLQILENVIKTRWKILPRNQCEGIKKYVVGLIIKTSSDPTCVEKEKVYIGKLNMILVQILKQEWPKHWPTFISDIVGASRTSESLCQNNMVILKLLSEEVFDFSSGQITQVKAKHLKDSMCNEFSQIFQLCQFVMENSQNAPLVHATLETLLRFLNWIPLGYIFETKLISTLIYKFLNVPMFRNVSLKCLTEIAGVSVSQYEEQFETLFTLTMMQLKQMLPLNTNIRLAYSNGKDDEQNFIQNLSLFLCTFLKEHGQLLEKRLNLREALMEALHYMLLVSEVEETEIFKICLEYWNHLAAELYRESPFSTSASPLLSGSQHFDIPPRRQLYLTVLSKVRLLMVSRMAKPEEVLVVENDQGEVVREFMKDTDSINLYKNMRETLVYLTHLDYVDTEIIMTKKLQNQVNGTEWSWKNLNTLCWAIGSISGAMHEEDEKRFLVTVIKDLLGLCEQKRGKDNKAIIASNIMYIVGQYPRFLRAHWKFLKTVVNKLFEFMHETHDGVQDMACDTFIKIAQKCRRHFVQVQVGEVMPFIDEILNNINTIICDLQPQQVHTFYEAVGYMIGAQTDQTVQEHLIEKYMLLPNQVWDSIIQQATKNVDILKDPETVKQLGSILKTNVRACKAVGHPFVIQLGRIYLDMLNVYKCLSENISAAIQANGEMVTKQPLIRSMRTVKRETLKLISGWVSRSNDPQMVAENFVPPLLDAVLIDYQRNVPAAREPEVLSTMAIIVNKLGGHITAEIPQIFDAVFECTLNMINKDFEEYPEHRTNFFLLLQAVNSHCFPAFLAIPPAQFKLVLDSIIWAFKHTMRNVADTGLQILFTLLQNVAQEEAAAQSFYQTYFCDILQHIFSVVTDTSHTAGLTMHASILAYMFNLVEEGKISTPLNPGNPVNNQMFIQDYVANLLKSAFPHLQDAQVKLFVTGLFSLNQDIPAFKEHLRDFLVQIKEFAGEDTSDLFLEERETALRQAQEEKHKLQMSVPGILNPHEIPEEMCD

Substance: cAMP-dependent protein kinase inhibitor alpha (Homo sapiens) (from UniProt P61925) S35L
- effect of a mutation on the interaction: increasing interaction
